Measurements taken from the supplement of paper PMC10201428.
± gives the standard deviation of the averaged measurements.

How the values were obtained:
[1] = system: VchCAST RNA-guided transposition machinery (E. coli BL21(DE3) host, lacZ target); experiment: relative integration efficiency (T-LR orientation) vs wild-type transposon end (log2 (normalized fold change)); transposon end mutated: right end (5 bp flank + 75 bp right end); higher = more efficient transposition
Summary of the method: (§1)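 A T7-driven effector plasmid encoding a CRISPR array, tniQ-cas8-cas7-cas6 and tnsA-tnsB-tnsC was co-transformed into E. coli BL21(DE3) together with a pUC57 mini-transposon donor holding barcoded pools of 1549 left-end or 1849 right-end variants. Transformants were plated with 0.1 mM IPTG at 37°C for 18 h. Illumina sequencing of PCR-amplified input plasmids and genomic integration junctions gave barcode abundances, and relative integration efficiency is their output/input fold change, normalised to reference barcodes and log-transformed.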

[2] = system: VchCAST RNA-guided transposition machinery (E. coli BL21(DE3) host, lacZ target); experiment: relative integration efficiency (T-RL orientation) vs wild-type transposon end (log2 (normalized fold change)); transposon end mutated: right end (5 bp flank + 75 bp right end); higher = more efficient transposition
Summary of the method: as §1

Sequence	relative integration efficiency (log2) [1]	relative integration efficiency (log2) [2]
ACATTTGTTGATACAAGGATAAAATGATAATTACACCCATAAATTGATAATTATCACACCCATAAATTGATATTGCCTCTGATCATAGTCAGACCAACATTGCTACGACCCGTATTCGCACCGACAC	-0.87 ± 0.12	-0.223 ± 0.044
ACATTTGTTGATACAAGGTAAAAATGATAATTACACCCATAAATTGATAATTATCACACCCATAAATTGATATTGCCTCTGATCATAGTCAGACCAACATTGCTACGACCCGTATTCGCACCGACAC	-2.67 ± 0.22	-2.26 ± 0.11
ACATTTGTTGATACACAACGCCCCGTCGCCGGCACAAACGCCCGGTCGCCGGCGACACAAACGCCCGGTCGCGGTAAGAGGATCATAGTCAGACCAACATTGCTACGACCCGTATTCGCACCGACAC	-5.17 ± 0.85	-7.89 ± 0.53
ACATTTGTTGATACACAACTAAAATGATAATTACACCCATAAATTGATAATTATCACACCCATAAATTGATATTGCCTCTGATCATAGTCAGACCAACATTGCTACGACCCGTATTCGCACCGACAC	-3.43 ± 1.4	-3.13 ± 0.19
ACATTTGTTGATACACACATAAAATGATAATTACACCCATAAATTGATAATTATCACACCCATAAATTGATATTGCCTCTGATCATAGTCAGACCAACATTGCTACGACCCGTATTCGCACCGACAC	-0.763 ± 0.33	-0.5621 ± 0.0046
ACATTTGTTGATACACCCATAAAATGATAATTACAACCATAAATTGATAATTATCACAACCATAAATTGATATTGCCTCTGATCATAGTCAGACCAACATTGCTACGACCCGTATTCGCACCGACAC	-0.642 ± 0.019	-0.707 ± 0.2
ACATTTGTTGATACACCCATAAATTGATAATTACAACCATAAAATGATAATTATCACAACCATAAAATGATAATTACTCTGATCATAGTCAGACCAACATTGCTACGACCCGTATTCGCACCGACAC	-0.939 ± 0.36	-0.638 ± 0.31
ACATTTGTTGATACACCCATAAATTGATAATTACAACCATAAAATGATAATTATCACAACCATAAAGTGATATTTACTCTGATCATAGTCAGACCAACATTGCTACGACCCGTATTCGCACCGACAC	-0.912 ± 0.79	-0.736 ± 0.32
ACATTTGTTGATACACCCATAAATTGATAATTACAACCATAAAATGATAATTATCACAACCATAAGTTGATATTTTCTCTGATCATAGTCAGACCAACATTGCTACGACCCGTATTCGCACCGACAC	-0.36 ± 0.66	-0.795 ± 0.13
ACATTTGTTGATACACCCATAAATTGATAATTACAACCATAAAATGATAATTATCACAACCATATATTGATATCTCCTCTGATCATAGTCAGACCAACATTGCTACGACCCGTATTCGCACCGACAC	-0.397 ± 0.063	-0.596 ± 0.35
ACATTTGTTGATACACCCATAAATTGATAATTACAACCATAAAATGATAATTATCACACCCATAAATTGATAATTACTCTGATCATAGTCAGACCAACATTGCTACGACCCGTATTCGCACCGACAC	-0.234 ± 0.37	-0.421 ± 0.15
ACATTTGTTGATACACCCATAAATTGATAATTACAACCATAAAATGATAATTATCACACCCATAAATTGATATTGCCTCTGATCATAGTCAGACCAACATTGCTACGACCCGTATTCGCACCGACAC	-0.673 ± 0.45	-0.475 ± 0.089
ACATTTGTTGATACACCCATAAATTGATAATTACAACCATAAAATGATAATTATCAGTGGGTATTTAACTATAACGCTCTGATCATAGTCAGACCAACATTGCTACGACCCGTATTCGCACCGACAC	2.58 ± 0.045	-0.217 ± 0.012
ACATTTGTTGATACACCCATAAATTGATAATTACAACCATAAAGTGATATTTATCACAACCATAAAATGATAATTACTCTGATCATAGTCAGACCAACATTGCTACGACCCGTATTCGCACCGACAC	-0.432 ± 0.17	-0.58 ± 0.22
ACATTTGTTGATACACCCATAAATTGATAATTACAACCATAAAGTGATATTTATCACAACCATAAAGTGATATTTACTCTGATCATAGTCAGACCAACATTGCTACGACCCGTATTCGCACCGACAC	-0.828 ± 0.015	-0.483 ± 0.29
ACATTTGTTGATACACCCATAAATTGATAATTACAACCATAAAGTGATATTTATCACAACCATAAGTTGATATTTTCTCTGATCATAGTCAGACCAACATTGCTACGACCCGTATTCGCACCGACAC	-0.743 ± 0.17	-0.418 ± 0.21
ACATTTGTTGATACACCCATAAATTGATAATTACAACCATAAAGTGATATTTATCACAACCATATATTGATATCTCCTCTGATCATAGTCAGACCAACATTGCTACGACCCGTATTCGCACCGACAC	0.318 ± 0.42	-0.0337 ± 0.3
ACATTTGTTGATACACCCATAAATTGATAATTACAACCATAAAGTGATATTTATCACACCCATAAATTGATAATTACTCTGATCATAGTCAGACCAACATTGCTACGACCCGTATTCGCACCGACAC	-0.96 ± 0.16	-0.494 ± 0.16

Sequence	relative integration efficiency (log2) [1]	relative integration efficiency (log2) [2]
ACATTTGTTGATACACCCATAAATTGATAATTACAACCATAAAGTGATATTTATCACACCCATAAATTGATATTGCCTCTGATCATAGTCAGACCAACATTGCTACGACCCGTATTCGCACCGACAC	-0.466 ± 0.18	-0.477 ± 0.26
ACATTTGTTGATACACCCATAAATTGATAATTACAACCATAAAGTGATATTTATCAGTGGGTATTTAACTATAACGCTCTGATCATAGTCAGACCAACATTGCTACGACCCGTATTCGCACCGACAC	2.08 ± 0.1	-0.744 ± 0.28
ACATTTGTTGATACACCCATAAATTGATAATTACAACCATAAGTTGATATTTTTCACAACCATAAAATGATAATTACTCTGATCATAGTCAGACCAACATTGCTACGACCCGTATTCGCACCGACAC	-0.748 ± 0.17	-0.644 ± 0.31
ACATTTGTTGATACACCCATAAATTGATAATTACAACCATAAGTTGATATTTTTCACAACCATAAAGTGATATTTACTCTGATCATAGTCAGACCAACATTGCTACGACCCGTATTCGCACCGACAC	-0.228 ± 0.18	-0.613 ± 0.13
ACATTTGTTGATACACCCATAAATTGATAATTACAACCATAAGTTGATATTTTTCACAACCATAAGTTGATATTTTCTCTGATCATAGTCAGACCAACATTGCTACGACCCGTATTCGCACCGACAC	-0.275 ± 0.18	-0.543 ± 0.19
ACATTTGTTGATACACCCATAAATTGATAATTACAACCATAAGTTGATATTTTTCACAACCATATATTGATATCTCCTCTGATCATAGTCAGACCAACATTGCTACGACCCGTATTCGCACCGACAC	-0.393 ± 0.46	-0.626 ± 0.19
ACATTTGTTGATACACCCATAAATTGATAATTACAACCATAAGTTGATATTTTTCACACCCATAAATTGATAATTACTCTGATCATAGTCAGACCAACATTGCTACGACCCGTATTCGCACCGACAC	0.055 ± 0.036	-0.622 ± 0.16
ACATTTGTTGATACACCCATAAATTGATAATTACAACCATAAGTTGATATTTTTCACACCCATAAATTGATATTGCCTCTGATCATAGTCAGACCAACATTGCTACGACCCGTATTCGCACCGACAC	-0.56 ± 0.069	-0.708 ± 0.17
ACATTTGTTGATACACCCATAAATTGATAATTACAACCATAAGTTGATATTTTTCAGTGGGTATTTAACTATAACGCTCTGATCATAGTCAGACCAACATTGCTACGACCCGTATTCGCACCGACAC	2.821 ± 0.028	-0.128 ± 0.33
ACATTTGTTGATACACCCATAAATTGATAATTACAACCATATATTGATATCTCTCACAACCATAAAATGATAATTACTCTGATCATAGTCAGACCAACATTGCTACGACCCGTATTCGCACCGACAC	-0.825 ± 0.58	-0.747 ± 0.26
ACATTTGTTGATACACCCATAAATTGATAATTACAACCATATATTGATATCTCTCACAACCATAAAGTGATATTTACTCTGATCATAGTCAGACCAACATTGCTACGACCCGTATTCGCACCGACAC	0.11 ± 0.14	-0.664 ± 0.34
ACATTTGTTGATACACCCATAAATTGATAATTACAACCATATATTGATATCTCTCACAACCATAAGTTGATATTTTCTCTGATCATAGTCAGACCAACATTGCTACGACCCGTATTCGCACCGACAC	0.798 ± 0.25	0.516 ± 0.26
ACATTTGTTGATACACCCATAAATTGATAATTACAACCATATATTGATATCTCTCACAACCATATATTGATATCTCCTCTGATCATAGTCAGACCAACATTGCTACGACCCGTATTCGCACCGACAC	0.0245 ± 0.11	-0.949 ± 0.26
ACATTTGTTGATACACCCATAAATTGATAATTACAACCATATATTGATATCTCTCACACCCATAAATTGATAATTACTCTGATCATAGTCAGACCAACATTGCTACGACCCGTATTCGCACCGACAC	0.157 ± 0.34	-0.753 ± 0.22
ACATTTGTTGATACACCCATAAATTGATAATTACAACCATATATTGATATCTCTCACACCCATAAATTGATATTGCCTCTGATCATAGTCAGACCAACATTGCTACGACCCGTATTCGCACCGACAC	-0.339 ± 0.29	-0.676 ± 0.13
ACATTTGTTGATACACCCATAAATTGATAATTACAACCATATATTGATATCTCTCAGTGGGTATTTAACTATAACGCTCTGATCATAGTCAGACCAACATTGCTACGACCCGTATTCGCACCGACAC	2.39 ± 0.18	-1.17 ± 0.28
ACATTTGTTGATACACCCATAAATTGATAATTACACCCATAAATTGATAATTATCACAACCATAAAATGATAATTACTCTGATCATAGTCAGACCAACATTGCTACGACCCGTATTCGCACCGACAC	-0.749 ± 0.39	-0.366 ± 0.2
